Data: patent publication US20250163145A1 (SHIONOGI, published 2025)
Substitutions are numbered along the chain they refer to. Where no end group is shown, it is not given here.

B1: mouse monoclonal antibody 15H11 (antibody, V domains shown)
VH: EVQLQQSGPELLKPGASVKISCKASGYTFTDYNMHWVKQSHGRSLEWIGRINPKNGVINSNEKFKDKATLTVDKSLSTAYMDLRSLTSEDSAVYFCAPSYYGGNTDAYWGHGTLVTVSA
VL: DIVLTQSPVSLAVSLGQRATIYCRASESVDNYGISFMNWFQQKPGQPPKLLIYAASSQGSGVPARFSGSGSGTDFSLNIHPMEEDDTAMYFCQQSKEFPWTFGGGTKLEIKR
notes: Mouse hybridoma antibody; also called mouse 15H11
B2: h15H11-51 (antibody, human IgG4 S228P, kappa, V domains shown)
VH: QVQLVQSGSELKKPGASVKVSCKASGYTFTDYNMHWVRQAPGRSLEWMGRINPKNGVILSNEKFKDRFVFSLDTSVSTAYLQISSLKAEDTAVYYCAPSYYGGDDDAYWGQGTLVTVSS
VL: DIVLTQSPASLAVSPGQRATITCRASDSVDNYGISFLNWFQQKPGQPPKLLIYAASSQGSGVPARFSGSGSGTDFTLTINPMEADDTANYYCQQSKEFPWTFGGGTKVEIKR
notes: hIgG4Pro/hIgK
B3: h15H11-52 (antibody, human IgG4 S228P, kappa, V domains shown)
VH: B2 VH
VL: B2 VL with D85R
notes: hIgG4Pro/hIgK
B4: h15H11-53 (antibody, human IgG4 S228P, kappa, V domains shown)
VH: B2 VH
VL: B2 VL with D85G
notes: hIgG4Pro/hIgK
B5: h15H11-54 (antibody, human IgG4 S228P, kappa, V domains shown)
VH: B2 VH
VL: B2 VL with D85N, D86P
notes: hIgG4Pro/hIgK
B6: h15H11-50 (antibody, human IgG4 S228P, kappa, V domains shown)
VH: B2 VH
VL: B2 VL with D85I
notes: hIgG4Pro/hIgK
B7: h15H11 heavy chain CDR mutant A101V (antibody, human IgG4 S228P, kappa, name in Kabat numbering, V domains shown)
VH: B2 VH with L59N, D104N, D105T, A107V
VL: B2 VL with D27E, L37M, D85N
notes: hIgG4Pro/hIgK
B8: h15H11 light chain CDR mutant P95G (antibody, human IgG4 S228P, kappa, name in Kabat numbering, V domains shown)
VH: B2 VH with L59N, D104N, D105T
VL: B2 VL with D27E, L37M, D85N, P99G
notes: hIgG4Pro/hIgK
B9: h15H11 light chain CDR mutant W96Y (antibody, human IgG4 S228P, kappa, name in Kabat numbering, V domains shown)
VH: B2 VH with L59N, D104N, D105T
VL: B2 VL with D27E, L37M, D85N, W100Y
notes: hIgG4Pro/hIgK
B10: h15H11 light chain CDR mutant Q90N (antibody, human IgG4 S228P, kappa, name in Kabat numbering, V domains shown)
VH: B2 VH with L59N, D104N, D105T
VL: B2 VL with D27E, L37M, D85N, Q94N
notes: hIgG4Pro/hIgK
B11: h15H11 heavy chain CDR mutant M34L (antibody, human IgG4 S228P, kappa, name in Kabat numbering, V domains shown)
VH: B2 VH with M34L, L59N, D104N, D105T
VL: B2 VL with D27E, L37M, D85N
notes: hIgG4Pro/hIgK

Molecular target: T1, Cys-hCE3C peptide (CQPKYEYSL), hCE3C peptide of human Nav1.7 with an added N-terminal Cys (human, also: biotin-labeled, site not given here)
T1 construct: Residues 1424-1431 of human Nav1.7 (UniProtKB Q15858) plus an N-terminal Cys; also called immunogenic peptide; immunogen peptide
T1 peptide: CQPKYEYSL
Experiment: ELISA, hybridoma supernatant on anti-mouse IgG plate, biotin-labeled Cys-hCE3C + streptavidin-HRP
Experimental: Three days after the final immunization, the spleen was removed, splenocytes and mouse myeloma cells (p3x6363-Ag8, Tokyo Oncology Institute) were fused by the PEG-method, and selection was made in a medium containing hypoxanthine, aminopterin and thymidine. Human Nav1.7-binding antibodies were identified by performing ELISA against immunogenic peptides using hybridoma culture supernatants. Specifically, hybridoma culture supernatant was added to an anti-mouse IgG antibody immobilized plate, washed twice with ELISA wash buffer, and biotin-labeled immunogenic peptide (Cys-hCE3C) and Streptavidin-HRP (manufactured by PIERCE) was added and reacted overnight at 4° C. After washing twice with ELISA wash buffer and developing color by adding TMB-Substrate Chromogen (manufactured by Thermo Fisher Scientific), the reaction was stopped with an equal volume of 0.5N sulfuric acid, and the absorbance at 450 nm was measured.

Row | Binder | binding result
1 | B1 | binds

Molecular target: T2, epitope peptide Cys-CE3C long (also: biotin label, site not given here)
T2 peptide: CSVNVDKQPKYEYSL
Experiment: competitive ELISA, unlabeled vs biotin-labeled peptide, antibody on anti-human IgG plate
Experimental: (§1) A diluted solution of the obtained recombinant humanized antibody, a biotin-labeled immunogen peptide, and Streptavidin-HRP (manufactured by PIERCE) were added to an anti-human IgG antibody-immobilized plate, and reacted overnight at 4° C. […] Next, a recombinant human antibody at the dilution rate, a biotin-labeled immunogen peptide, and Streptavidin-HRP (manufactured by PIERCE) were added. At the same time, a dilution series of unlabeled immunogenic peptide was added and reacted overnight at 4° C. After washing twice with ELISA wash buffer, TMB-Substrate Chromogen (manufactured by Thermo Fisher Scientific) was added to develop color, the reaction was stopped with an equal amount of 0.5N sulfuric acid, and the absorbance at 450 nm was measured. The concentration of the unlabeled peptide which attenuated the signal of the biotin-labeled peptide by half was defined as the affinity (IC50).
Mutants (h15H11-44 to 54) in which various mutations were introduced into the light chain human framework sequence of h15H11-2 (heavy chain variable region: IGHV7-4-1 Q43R, G44S, N58L, N100D, T100aD, R94P (SEQ ID NO: 33)/light chain variable region: IGKV7-3 E27D, M33L, Y36F, V78M (SEQ ID NO: 55)) produced in Example 7 were produced. Affinity evaluation was performed on the produced mutants by the method described in Example 5.

Row | Binder | IC50 [nM]
2 | B2 | 0.63
3 | B3 | 0.5
4 | B4 | 0.55
5 | B5 | 0.72
6 | B6 | 0.55

Molecular target: T2, epitope peptide Cys-CE3C long
Experiment: competitive ELISA (Example 5)
Experimental: as §1

Row | Binder | binding result
7 | B7 | no binding (tested: below the detection limit)
8 | B8 | no binding (tested: below the detection limit)
9 | B9 | no binding (tested: below the detection limit)
10 | B10 | no binding (tested: below the detection limit)
11 | B11 | no binding (tested: below the detection limit)
